Results reported in patent US20040138431A1 (Genentech, published 2004).

Biological target: trkB with a gD tag expressed on CHO cells
Assay: cell-based or functional assay

B1: recombinant human NT-4/5 (rhNT-4/5), correctly folded, intact, purified from E. coli (ligand)
chain: GVSETAPASRRGELAVCDAVSGWVTDRRTAVDLRGREVEVLGEVPAAGGSPLRQYFFETRCKADNAEEGGPGAGGGGCRGVDRRHWVSECKAKQSYVRALTAHAQGRVGWRWIRIDTACVCTLLSRTGRA
EC50, kinase receptor activation (KIRA) assay: 0.0126 µg/mL
